Reference: the supplement of paper PMC10567573
± gives the standard deviation.

Test: protein stability index of a GFP-peptide fusion (GPS, HEK-293T) (PSI 1-6); higher = more stable
Conditions: c terminus: a fixed tail appended
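Also: 24-mer peptide tiles fused after GFP, lentivirally expressed, FACS-sorted into six equal bins by GFP/DsRed ratio, decoded by Illumina sequencing, PSI is the read-weighted mean bin number.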

Sequence	protein stability index (treatment: DMSO)	protein stability index (treatment: MLN4924 1 uM, 8 h)
VNVDNLLAAAVVQEHSNSVGGQDT [C18orf25]	5.05 ± 0.21	4.92 ± 0.43
VPETIHDELQQSFQKSHNSLQRWE [PRIM1]	3.88 ± 0.16	3.75 ± 0.24
VPFVRVKREREVDEDSEPEREVRA [USP39]	5.15 ± 0.26	5.17 ± 0.14
VPLGFHYETKYVVLSYLGLLSQEK [BCL2L13]	3.25 ± 0.93	2.4 ± 0.91
VPSSGYGAVTASKHSNSPPLVTPP [SMTNL2]	4.29 ± 0.14	4.16 ± 0.15
VPTTPGPASGSTFRGRRDVSGSWE [RETREG3]	4.37 ± 0.2	4.44 ± 0.15
VQTSVIGSNGYILNKPALQAQPLR [EHMT1]	3.06 ± 0.34	3.17 ± 0.13
VRLLLEFKAEVDPLSDKGTTPLQL [ASB7]	2.16 ± 0.48	2.31 ± 0.4
VRSTETVERDNMEEDNVEESEEEG [HDAC6]	5.57 ± 0.45	5.72 ± 0.24
VSEAGGSGRLSASWEPLSGPSTPS [FCHO1]	4.54 ± 0.17	4.74 ± 0.2
VSKVVKGGSSGKGTTLRGRSDADL [OAS1]	4.36 ± 0.11	4.48 ± 0.15
VSRMRTQRAFSIQTPEQYYFCYKA [PTPN9]	2.56 ± 0.18	2.43 ± 0.27
VSVNLEAFSQAISAIQALRSSVSR [MED27]	3.17 ± 0.15	3.24 ± 0.28
VTLGGVLRQQLVVSKELRMYDEKA [KLHL13]	2.95 ± 0.25	3.02 ± 0.41
VTLMVAKWTGDFFNKGIYDIHVGL [CLCN6]	2.46 ± 0.4	3.58 ± 0.26
VTLRQVLAAKERHCGELKRRLGLS [TPD52L2]	2.35 ± 0.28	2.67 ± 0.2
VTQNSTAEPSRFSSSDSDFDDEEP [FCHO1]	5.52 ± 0.25	5.55 ± 0.14
VTTHQPTNLVLPSNGSMHNYCPQQ [EDNRA]	3.75 ± 0.2	3.77 ± 0.056
VVDKETDNMYRLAHFSPFLYYQSQ [PDZK1]	2.62 ± 0.35	
VVHVSFPEVTSALLESLNQQRLQG [ZBTB22]	2.27 ± 0.28	2.41 ± 0.21
VVSSEGRQSRRQSVSRFFADSGAD [FBF1]	4.25 ± 0.11	4.44 ± 0.31
VVVFKALVTTHHLMVHGNERFIQY [SNAP91]	3.2 ± 0.42	3.02 ± 0.5

Sequence	protein stability index (treatment: DMSO)	protein stability index (treatment: MLN4924 1 uM, 8 h)
VYHPSPEESRDPTLYANNVQRVMA [LPCAT4]	3.6 ± 0.13	3.81 ± 0.12
WEEAAPGRAVEHAMFLGDAAAHWY [MYORG]	3.05 ± 0.47	3.15 ± 0.22
WEQTHLTYRIENYTPDLPRADVDH [MMP1]	3.95 ± 0.31	3.53 ± 0.3
WFSLASVIFLLLFAPFIVYYFIMA [DHCR7]	2.27 ± 0.53	2.34 ± 0.44
WHLKQSPASPERDYSPYYKTIEEL [KRT13]	3.26 ± 0.094	3.29 ± 0.26
WHPAENIIAIAATNNLYIFQDKVN [PPP2R2C]	2.6 ± 0.48	2.44 ± 0.31
WIEQLNECKQLSESQVKSLCEKAK [PPP2CA]	3.85 ± 0.18	3.87 ± 0.1
WIVDKQHVYIGSAGLDWQSLGQMK [PLD5]	2.44 ± 0.42	2.16 ± 0.24
WKIALLFVAFALCMFCLYSFMPLV [SLC35F2]	2.19 ± 0.51	2.69 ± 0.46
WKLQKKEHPPEVSRETQRTPMNHQ [FBXO34]	4.52 ± 0.11	4.49 ± 0.16
WMENNGHVAGEQMLEDGPHNANRG [CCDC70]	5.23 ± 0.39	5.25 ± 0.14
WNDLRPKLSCLFAGPHSTLTPPCS [SNX8]	2.27 ± 0.29	2.27 ± 0.39
WSRNSKPVHTTILNPHIHLMGDES [CAMK2A]	3.4 ± 0.28	3.53 ± 0.08
WYDMFRDAAAILLDEQNKRPCRKF [ZMAT5]	2.35 ± 0.22	2.33 ± 0.44
YAFANVFHGWKYMFGLVIPLGVLQ [SLC2A12]	3.19 ± 0.62	3.11 ± 0.52
YAPSCAKCKKKITGEIMHALKMTW [PDLIM7]	2.53 ± 0.33	2.44 ± 1
YEIPHFRLKKVENIKIWLSLRSYL [PHTF1]	2.8 ± 1	2.92 ± 0.9
YEPLLSRVQAALVWERPARSALWC [RETREG3]	2.39 ± 0.53	2.12 ± 0.22
YESHSTSELEDLTEPEQRELKTKL [TPD52L3]	5.63 ± 0.13	5.52 ± 0.11
YFYHRETENEEQTQLTQNAVSCPY [KCNA4]	3.88 ± 0.34	3.96 ± 0.17
YGLPIMVTLMVAKWTGDFFNKGIY [CLCN6]	2.98 ± 0.25	3.4 ± 0.42
YIATQGSLPETFGDFWRMIWEQRS [PTPRD]	2.21 ± 0.21	2.5 ± 0.55

Sequence	protein stability index (treatment: DMSO)	protein stability index (treatment: MLN4924 1 uM, 8 h)
YITKVSEEVTRLGAQVKELEEKCQ [TRIM15]	4.07 ± 0.24	4.22 ± 0.37
YKAKSRSPGSPVGEGTGSPPKWQI [ADD1]	3.5 ± 0.28	3.76 ± 0.33
YKDRQKFSEQVFKVASSDLVNMGI [FLOT1]	2.52 ± 0.24	2.77 ± 0.29
YKGHTDVVRYLLEQRADPNAKAHC [FEM1B]	3.27 ± 0.44	3.6 ± 0.17
YKPPALKKSNSPGTASSGSSRLPQ [ZC2HC1A]	4.46 ± 0.079	4.51 ± 0.2
YKRRIDAENSPYLNPQLVQPAKKP [ESRRG]	4.01 ± 0.27	3.85 ± 0.33
YLDPSVLSGVSCFVMFLCLADYLV [ARL6IP1]	2.98 ± 0.21	2.97 ± 0.39
YLLHPAAFHGAPSHLPTRSPSFPE [TBX6]	2.49 ± 0.28	2.87 ± 0.26
YLQIFATRRSCIDESQISAEEAED [FAM189A2]	3.71 ± 0.14	3.92 ± 0.32
YPVVVAESMYGDFQEAMTHLQHKL [TENT5D]	2.49 ± 0.15	2.81 ± 0.38
YQETISDVLNDAIFDEDHDEMVIV [GCH1]	3.98 ± 0.09	4.02 ± 0.25
YQKILAGKIDFPRHLDFHVKDLIK [PRKX]	2.19 ± 0.97	2.1 ± 0.4
YRFFKYIENRDVAKSVLKERGLKK [BTBD10]	2.44 ± 0.25	2.52 ± 0.3
YRNLTHNPPSDFSFQNMNSKRKAE [STK38L]	4.47 ± 0.17	4.58 ± 0.087
YTCHECGDSFSHSSNRIRHLRTHT [ZNF263]	3.04 ± 0.18	3.32 ± 0.33
YTFIIVPKMLVDLLSQKKTISFLG [OR10K2]	3.09 ± 0.14	2.7 ± 0.28
YTMLLGRPPFETTNLKETYRCIRE [PLK2]	2.32 ± 0.3	2.4 ± 0.22
YTYEKLLWTTSRVLKVLSVCSSNK [CTNNB1]	2.47 ± 0.36	2.22 ± 0.43
YVKAKKSIDKDEEFAGSSPQSSKS [FAN1]	3.57 ± 0.67	4.16 ± 0.65
YVKVFEHFLENLDKSRKGELLKKS [PRIM1]	1.96 ± 0.31	2.09 ± 0.48
YYSPILDQWTPIAAMLRGQSDVGV [KLHL13]	2.4 ± 0.3	2.26 ± 0.3
